Positions count from the first letter of the chain named. Names and notes keep the numbering of the source.
B1: TPP-4935 (Fab, V domains shown)
VH: EVQLVQSGAEVKKPGASVKVSCKASGYTFTTYTIHWVRQAPGQGLEWIGYINPSSDYTRYNPKFKDRVTLTTDKSTSTAYMELRSLRSDDTAVYYCQTGTRDYWGQGTTVTVSS
VL: DIQLTQSPSFLSASVGDRVTITCSAASSVSYIYWFQQKPGKAPKLLIYSTSTLPSGVPSRFSGSGSGTEYTLTISSLQPEDFATYYCHQRNSFPFTFGQGTKLEIKR
notes: also called Parental; hu6C12-24 parental Fab
B2: TPP-4935, humanized 6C12 parental Fab (Hu6C12-24) (Fab, V domains shown)
VH: B1 VH
VL: B1 VL
notes: also called parent Fab; TPP-4935 (Parental)
B3: TPP-7783, affinity matured 6C12 Fab (Fab, V domains shown)
VH: B1 VH with T33A, I48M, D56G, D66H, L70M, T72R, Q97W
VL: DIQLTQSPSFLSASVGDRVTITCRASSSVRYIYWFQQKPGKAPKLLIYATSFRRSGVPSRFSGSGSGTEYTLTISSLQPEDFATYYCHQRNSFPYTFGQGTKLEIK
notes: Tested as Fab
B4: TPP-7797, affinity matured 6C12 Fab (Fab, V domains shown)
VH: B1 VH with I48M, D56G, D66G, L70M, T72R, Q97W, T100R
VL: B3 VL with R54Q
notes: Tested as Fab
B5: TPP-5907, humanized and germlined 6C12 Fab; VL: (S24R, A26S, S49A, P54Q, F95Y); VH: (I48M, S54G, D56G, D66G, L70M, T72R) (Fab, V domains shown)
VH: B1 VH with I48M, S54G, D56G, D66G, L70M, T72R
VL: B1 VL with S24R, A26S, S49A, P54Q, F95Y
B6: TPP-5340 (Fab, V domains shown)
VH: B1 VH
VL: B1 VL with S24R
notes: also called VL: (S24R)
B7: TPP-5341 (Fab, V domains shown)
VH: B1 VH
VL: B1 VL with A26S
notes: also called VL: (A26S)
B8: TPP-7794, affinity matured 6C12 Fab (Fab, V domains shown)
VH: B1 VH with T33A, I48M, D56G, D66H, L70M, T72R, Q97W
VL: B3 VL with R54Q
notes: Tested as Fab
B9: 7G4E9/A8 (antibody, V domains shown)
VH: QVQLKESGPGLVAPSQSLSITCTVSGFSLTRFGISWVRQPPGKGLEWMGVIWGDGSTDYHSALISRLSITKDNSKSQVFFRLNSLQSDDSATYYCARSFGMDYWGQGTSVTVSS
VL: NIMMTQSPSSLAVSAGEKVTMSCKSSQSILNSSNQKNYLAWYQQKPGQSPKLLIYWASTRESGVPDRFTGSGSGTDFTLTISSVQAEDLAVYYCHQYFSSRTFGGGTKLEIK
notes: as m8

Legend:
[1] = target: T1, purified human glycophorin A protein (Sigma, cat # G5017) (human, UniProt P02724 20-150); assay: ELISA, native hGPA
T1 construct: mature; also called Sigma hGPA; Sigma GPA
T1 sequence (looked up): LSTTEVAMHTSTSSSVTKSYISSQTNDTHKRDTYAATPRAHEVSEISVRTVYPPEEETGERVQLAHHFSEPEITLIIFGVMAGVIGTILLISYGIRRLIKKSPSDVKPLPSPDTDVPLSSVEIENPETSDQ

[2] = target: T2, human glycophorin A in the red blood cell membrane (human, UniProt P02724 20-150); assay: SPR single cycle kinetics, human RBC membranes on L1 sensor; single cycle kinetics, FIG. 6
T2 construct: whole, on cells; used for intact RBC, isolated RBC membranes and transfected cells; the assay field tells which; also called GPA; hGPA
T2 sequence (looked up): T1 sequence (looked up)
Method: (§1) Kinetic analysis of the antibody binding to human red blood cell membranes was also performed using surface plasmon resonance (SPR) using a Biacore instrument. In this assay membranes prepared from human red blood cells were attached to a L1 sensor matrix and antibodies were flowed over the RBC membranes.

[3] = target: T2, human glycophorin A in the red blood …; assay: ELISA, human RBC membranes;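 note: antibodies bound to isolated human red blood cell membrane ghosts coated on 96-well plates, tested 1.5 h at room temperature, bound antibody quantified with a detection antibody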
Method: In order to evaluate binding of antibodies to GPA in the native context of the red blood cell membrane we made use of isolated red blood cell membranes, also called red blood cells ghosts. These membranes are prepared by first isolating red blood cells from citrated whole blood. Citrated whole blood is layered on to Ficol and centrifuged at low speed for 20 minutes to pellet the red blood cells. The supernatant containing plasma and other blood cells is discarded and the red blood cell pellet is subsequently washed 3 times in 10 cell volumes of phosphate buffered saline (PBS). A 10 ml pellet of purified red blood cells is resuspended in 30 ml of cold low osmorality 20 mM phosphate buffer (pH7.4) and incubated for 30 mins to break open the RBC. After Centrifugation at 10,000 rpm for 30 min at 5° C. the hemoglobin containing supernatant is discarded. To the membrane pellet another 30 ml of 20 mM phosphate buffer is added and the sample centrifuged again at 10,000 rpm for 30 min at 5° C. to pellet the membrane fraction. This wash and centrifugation step is repeated another 4 times. The red blood cell membranes are then resuspended in 20 mL of PBS to achieve an equivalent of approximately 2.5E9 cells/mL and stored frozen at −20° C. Binding of antibodies to RBC ghost can be measured by ELISA in which the RBC ghost suspension (5×10⁶ in 100 ul PBS) was added to each well of flat bottom 96-well ELISA microtiter plates (2HB, Immunolon) and the plates incubated overnight at 4° C. The plates were blocked with Starting blocking buffer (Thermo Fisher) for 2 hours at room temperature (RT). Antibodies or other test molecules were added to each well and incubated for 1.5 hours at RT. After 4 washes 100 ul of an appropriate detection antibody was added to each well and incubated for 1 hour at RT. After 4 washes the detection antibody was measured using appropriate detection reagents.

[4] = target: T3, recombinant human glycophorin A ectodomain protein (human, UniProt P02724 20-91); assay: ELISA, Fab on coated recombinant human GPA ectodomain
T3 construct: 72 amino acids of the extracellular region; also called Hu-rec GPA
T3 sequence: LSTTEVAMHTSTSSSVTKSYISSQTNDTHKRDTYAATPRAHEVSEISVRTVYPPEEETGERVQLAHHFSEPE

[5] = target: T4, Cynomolgus monkey recombinant glycophorin A ectodomain (Cynomolgus monkey); assay: ELISA, Fab on coated recombinant cyno GPA ectodomain
T4 construct: extracellular domain

[6] = target: T5, native human glycophorin A protein (human, UniProt P02724 20-150); assay: ELISA, Fab on coated native human GPA
T5 construct: mature; also called Hu-nat GPA
T5 sequence (looked up): T1 sequence (looked up)

[7] = target: T6, human glycophorin A on human red blood cells or red blood cell membranes (human, UniProt P02724 20-150); assay: SPR (Biacore), Fab over human RBC membranes, 1:1 fit; * slight deviation possible
T6 construct: whole, on cells; also called hRBC; human RBC membranes
T6 sequence (looked up): T1 sequence (looked up)
Method: as §1

[8] = target: T6, human glycophorin A on human red blood …; assay: ELISA, Fab on coated human RBC membranes
Method: These membranes are prepared by first isolating red blood cells from citrated whole blood. Citrated whole blood is layered on to Ficol and centrifuged at low speed for 20 minutes to pellet the red blood cells. The supernatant containing plasma and other blood cells is discarded and the red blood cell pellet is subsequently washed 3 times in 10 cell volumes of phosphate buffered saline (PBS). A 10 ml pellet of purified red blood cells is resuspended in 30 ml of cold low osmorality 20 mM phosphate buffer (pH7.4) and incubated for 30 mins to break open the RBC. After Centrifugation at 10,000 rpm for 30 min at 5° C. the hemoglobin containing supernatant is discarded. To the membrane pellet another 30 ml of 20 mM phosphate buffer is added and the sample centrifuged again at 10,000 rpm for 30 min at 5° C. to pellet the membrane fraction. This wash and centrifugation step is repeated another 4 times. The red blood cell membranes are then resuspended in 20 mL of PBS to achieve an equivalent of approximately 2.5E9 cells/mL and stored frozen at −20° C. Binding of antibodies to RBC ghost can be measured by ELISA in which the RBC ghost suspension (5×10⁶ in 100 ul PBS) was added to each well of flat bottom 96-well ELISA microtiter plates (2HB, Immunolon) and the plates incubated overnight at 4° C. The plates were blocked with Starting blocking buffer (Thermo Fisher) for 2 hours at room temperature (RT). Antibodies or other test molecules were added to each well and incubated for 1.5 hours at RT. After 4 washes 100 ul of an appropriate detection antibody was added to each well and incubated for 1 hour at RT. After 4 washes the detection antibody was measured using appropriate detection reagents.

[9] = target: T6, human glycophorin A on human red blood …; assay: Fab 7 ug/ml on intact human RBC, unbound Fab by ELISA; pre-dilution
Method: (§2) The binding of affinity matured Fab antibodies to intact human RBC was also measured. Human RBC were isolated from fresh anti-coagulated normal human blood by centrifugation through a ficol gradient and washing in PBS buffer. RBC diluted to 1/10th of normal hematocrit were incubated with purified Fab antibodies at a final concentration of 7 ug/ml for 1 hour at room temperature on a rotating shaker after which a sample was taken and the RBC were pelleted by centrifugation and the supernatant was collected. The remaining RBC suspension was diluted 200-fold in PBS buffer and incubated for a total of 2 hours at room temperature on a rotating shaker and samples were removed at 0, 5 min, 20 min, 1 h and 2 h and the RBC pelleted and the supernatant collected. The amount of Fab in the supernatants was then measured using an ELISA assay and the results used to calculate the percentage of the input Fab that was bound to the RBC. […] The percentage that remains bound after 200-fold dilution of the RBC suspension is an indication of the overall strength of the binding to human RBC.

[10] = target: T6, human glycophorin A on human red blood …; assay: SPR (Biacore), Fab on human RBC membranes; T½ = 0.69/kd; * not accurate;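 for kon: human RBC membranes captured on an L1 sensor chip, Fab fragments passed over as analyte, binding kinetics read by surface plasmon resonance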
Method: as §1
(§3) The binding kinetics of the affinity matured Fab antibodies was also measured.

[11] = target: T6, human glycophorin A on human red blood …; assay: Fab on intact human RBC, unbound Fab by ELISA; 0 min after 200-fold dilution
Method: as §2

[12] = target: T6, human glycophorin A on human red blood …; assay: Fab on intact human RBC, unbound Fab by ELISA; 60 min after 200-fold dilution
Method: as §2

[13] = target: T7, Cynomolgus monkey glycophorin A on Cynomolgus monkey red blood cells or red blood cell membranes (Cynomolgus monkey); assay: Fab 7 ug/ml on intact cyno RBC, unbound Fab by ELISA; pre-dilution
T7 construct: whole, on cells; also called Cyno RBC; Cynomolgus monkey RBC membranes

[14] = target: T6, human glycophorin A on human red blood …; assay: SPR (Biacore), Fab on human RBC membranes;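 note: human RBC membranes captured on an L1 sensor chip, Fab fragments passed over as analyte, binding kinetics read by surface plasmon resonance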
Method: as §1, §3

[15] = target: T6, human glycophorin A on human red blood …; assay: Fab on intact human RBC, unbound Fab by ELISA; 5 min after 200-fold dilution
Method: as §2

[16] = target: T7, Cynomolgus monkey glycophorin A on …; assay: Fab on intact cyno RBC, unbound Fab by ELISA; 0 min after 200-fold dilution
[17] = target: T6, human glycophorin A on human red blood …; assay: Fab on intact human RBC, unbound Fab by ELISA; 20 min after 200-fold dilution
Method: as §2

[18] = target: T6, human glycophorin A on human red blood …; assay: SPR (Biacore), Fab on human RBC membranes; * not accurate, instrument limit
Method: as §1, §3

[19] = target: T7, Cynomolgus monkey glycophorin A on …; assay: Fab on intact cyno RBC, unbound Fab by ELISA; 5 min after 200-fold dilution
Method: (§4) The binding of affinity matured Fab antibodies to intact Cynomolgus monkey RBC was measured. Cynomolgus monkey RBC were isolated from fresh anti-coagulated blood by centrifugation through a ficol gradient and washing in PBS buffer. RBC diluted to 1/10th of normal hematocrit were incubated with the Fab at a final concentration of 7 ug/ml for 1 hour at room temperature on a rotating shaker after which a sample was taken and the RBC were pelleted by centrifugation and the supernatant was collected. The remaining RBC suspension was diluted 200-fold in PBS buffer and incubated for a total of 2 hours at room temperature on a rotating shaker and samples were removed at 0, 5 min, 20 min, 1 h and 2 h and the RBC pelleted and the supernatant collected. […] The amount of Fab in the supernatants was then measured using an ELISA assay and the results used to calculate the percentage of the input Fab that was bound to the RBC.

[20] = target: T6, human glycophorin A on human red blood …; assay: Fab on intact human RBC, unbound Fab by ELISA; 120 min after 200-fold dilution
Method: as §2

[21] = target: T7, Cynomolgus monkey glycophorin A on …; assay: Fab on intact cyno RBC, unbound Fab by ELISA; 20 min after 200-fold dilution
Method: as §4

[22] = target: T7, Cynomolgus monkey glycophorin A on …; assay: Fab on intact cyno RBC, unbound Fab by ELISA; 120 min after 200-fold dilution
[23] = target: T7, Cynomolgus monkey glycophorin A on …; assay: Fab on intact cyno RBC, unbound Fab by ELISA; 60 min after 200-fold dilution
Method: as §4

[24] = target: T7, Cynomolgus monkey glycophorin A on …; assay: ELISA, Fab on coated cyno RBC membranes
[25] = target: T6, human glycophorin A on human red blood …; assay: SPR (Biacore), Fab over human RBC membranes, 1:1 fit
Method: as §1

[26] = target: T8, recombinant human GPA ectodomain (human, UniProt P02724 20-91); assay: ELISA, rec hGPA ectodomain
T8 construct: also called recombinant hGPA ECD; recGPA
T8 sequence: T3 sequence

[27] = target: T1, purified human glycophorin A protein …; assay: ELISA, hGPA
Method: (§5) Hybridomas were generated from the spleen cells of these mice and these hybriomas were screened first by fluorescence activated cell sorting (FACS) against isolated human and monkey (Cynomolgus monkey and Rhesus monkey) red blood cells (RBC) and then by ELISA against purified human glycophorin A protein (GPA). Isolated RBC were prepared from whole blood from normal human, cynomolgus monkey, and beagle dog, were anticoagulant with sodium heparin (Bioreclamation). 2-3 mL of whole blood was loaded gently on the top of 3 mL Ficoll Plus (Sigma Aldrich) then centrifuged at 500 g for 20 min at room temperature (RT). The RBC pellets were washed 3 times with 10 mL of PBS, and centrifuge 400 g for 10 min at RT. RBC pellets were re-suspended in PBS at the same total volume as the original blood volume to achieve the same RBC cell density as in whole blood and stored at 4° C. Purified human glycophorin A protein was obtained from Sigma Aldrich and coated on ELISA plates at 2 ug/ml. Binding of antibodies to human GPA was detected using appropriate secondary antibodies using methods well known in the art.

[28] = target: T1, purified human glycophorin A protein …; assay: ELISA, purified IgG
Method: The “Sigma GPA” is a crude preparation of human GPA extracted from human red blood cells and is therefore representative of the highly glycosylated form of the native protein.
EC 50 values were determined from a dilution curve of the antibody. Sigma GPA is partially purified GPA extracted from human red blood cells and purchased from Sigma Chemical Company (cat # G5017), asialo hGPA is human GPA that was desialylated and ECD is the recombinantly expressed ectodomain which is the extracellular portion of GPA.

dog red blood cells = target: T9, dog red blood cells (dog); assay: FACS, dog RBC
T9 construct: also called dog RBC
Method: as §5

[29] = target: T10, Cynomolgus monkey glycophorin A on Cynomolgus monkey red blood cells (Cynomolgus monkey); assay: FACS, Cyno RBC
T10 construct: whole, on cells; also called Cyno RBC; Cyno GPA
Method: as §5

[30] = target: T2, human glycophorin A in the red blood …; assay: FACS, hu RBC
Method: as §5

[31] = target: T8, recombinant human GPA ectodomain; assay: SPR, IgG; SPR, IgG form, recombinant human GPA ectodomain

Binder	binding by ELISA relative to parental [1]	Kd [2]	binding by ELISA relative to parental [3]	percentage of input antibody bound [9]	Estimated T½ [10]	percentage of input antibody bound [11]	percentage of input antibody bound [12]	percentage of input antibody bound [13]	percentage of input antibody bound [15]	percentage of input antibody bound [16]	percentage of input antibody bound [17]	Kd [18]	koff [18]	percentage of input antibody bound [19]	percentage of input antibody bound [20]	percentage of input antibody bound [21]	percentage of input antibody bound [22]	percentage of input antibody bound [23]	also measured
B1	1	130 nM	0.99																
B2																			binding in ELISA relative to parental Fab [4]: 1 relative to parental Fab; binding in ELISA relative to parental Fab [5]: 1 relative to parental Fab; binding in ELISA relative to parental Fab [6]: 1 relative to parental Fab; Kd [7]: 167 nM; koff [7]: 0.031 s⁻¹; kon [7]: 190000 M⁻¹ s⁻¹; binding in ELISA relative to parental Fab [8]: 1 relative to parental Fab
B3				90%	33 days	87%	84%	72%	86%	60%	86%	0.904 pM	2.42e-07 s⁻¹	62%	85%	62%	56%	64%	kon [14]: 267000 M⁻¹ s⁻¹
B4				97%	0.487 days	96%	94%	79%	95%	81%	94%	0.253 pM	1.64e-05 s⁻¹	66%	92%	59%	50%	56%	kon [18]: 6.49e+07 M⁻¹ s⁻¹
B5																			binding in ELISA relative to parental Fab [4]: 6.9 relative to parental Fab; binding in ELISA relative to parental Fab [5]: 1.4 relative to parental Fab; binding in ELISA relative to parental Fab [6]: 12.3 relative to parental Fab; binding in ELISA relative to parental Fab [24]: 1.9 relative to parental Fab; Kd [25]: 0.8 nM; koff [25]: 0.004 s⁻¹; kon [25]: 4.9e+06 M⁻¹ s⁻¹; binding in ELISA relative to parental Fab [8]: 90.1 relative to parental Fab
B6	1.17	25 nM	0.9																binding by ELISA relative to parental [26]: 1.23
B7	1.03	34 nM	0.82																binding by ELISA relative to parental [26]: 1.19
B8				93%	922 days	92%	90%	73%	91%	67%	90%	< 10 pM	< 2e-05 s⁻¹	66%	90%	65%	57%	67%	kon [18]: 2.22e+07 M⁻¹ s⁻¹
B9																			EC50 [27]: 0.071 nM; EC50 [28]: 0.33 nM; FACS signal (dog red blood cells): 0.98 relative flourescence units; FACS signal [29]: 8 relative flourescence units; FACS signal [30]: 2830 relative flourescence units; Kd [31]: 5.92 nM; koff [31]: 0.00046 s⁻¹; kon [31]: 77700 M⁻¹ s⁻¹; t½ [31]: 25.1 min
